Assay results as given in PMC5521794, “Understanding Russell’s viper venom factor V activator’s substrate specificity by surface plasmon resonance and in-silico studies” (PLoS ONE, 2017).

Molecular target: Russell's viper venom factor V activator (Russell's viper, Natural, unmodified enzyme purified from Indian Russell's viper venom. The isoform (alpha or gamma) is not stated; gamma is assumed because the paper models RVV-V with PDB 3S9C. The candidate entry is)
Assay: SPR; Biacore T200; RVV-V immobilised on a CM5 chip by amine coupling (3000 RU); peptides flowed over at 62.5 uM to 1 mM in PBS, 30 ul/min; association 120 s, dissociation 300 s; regeneration 10 mM glycine pH 2.5; two-state binding model
Settings: both partners purified

B1: Peptide II (factor V cleavage site II, Lys1008-Pro1022) (peptide)
peptide: KHTHHAPLSPRTFHP
notes: also called site II peptide; source: synthetic peptide; bought: Genei
Binder B1 has a Kd of 2780 µM.
